Kd and IC50 data for 14 molecules are collected here from patent US20190119389A1 (POTENZA THERAPEUTICS, published 2019).

Changes are numbered by the printed parent chain. Names may count otherwise.

As usually defined, the Kd is the equilibrium constant for the complex coming apart. The low end stands for a tighter complex, the high end for a looser complex. By IC50 is commonly meant the concentration at which inhibition is half-maximal.

In experiment [1] the target is T1, Human NRP-1 His (human, UniProt O14786 22-856).
T1 construct: Recombinant monomeric protein; Biotinylated in the MSD-SET assay; also called hNRP-1; not shown: His tag
In words: BLI ForteBio, IgG1 N297A on AHQ sensor, 100 nM monomeric antigen, 1:1 fit. In general terms: Biolayer interferometry detects binding as a change in optical thickness at a sensor tip.
Target sequence in this assay (O14786 22-856 V179A limits assumed): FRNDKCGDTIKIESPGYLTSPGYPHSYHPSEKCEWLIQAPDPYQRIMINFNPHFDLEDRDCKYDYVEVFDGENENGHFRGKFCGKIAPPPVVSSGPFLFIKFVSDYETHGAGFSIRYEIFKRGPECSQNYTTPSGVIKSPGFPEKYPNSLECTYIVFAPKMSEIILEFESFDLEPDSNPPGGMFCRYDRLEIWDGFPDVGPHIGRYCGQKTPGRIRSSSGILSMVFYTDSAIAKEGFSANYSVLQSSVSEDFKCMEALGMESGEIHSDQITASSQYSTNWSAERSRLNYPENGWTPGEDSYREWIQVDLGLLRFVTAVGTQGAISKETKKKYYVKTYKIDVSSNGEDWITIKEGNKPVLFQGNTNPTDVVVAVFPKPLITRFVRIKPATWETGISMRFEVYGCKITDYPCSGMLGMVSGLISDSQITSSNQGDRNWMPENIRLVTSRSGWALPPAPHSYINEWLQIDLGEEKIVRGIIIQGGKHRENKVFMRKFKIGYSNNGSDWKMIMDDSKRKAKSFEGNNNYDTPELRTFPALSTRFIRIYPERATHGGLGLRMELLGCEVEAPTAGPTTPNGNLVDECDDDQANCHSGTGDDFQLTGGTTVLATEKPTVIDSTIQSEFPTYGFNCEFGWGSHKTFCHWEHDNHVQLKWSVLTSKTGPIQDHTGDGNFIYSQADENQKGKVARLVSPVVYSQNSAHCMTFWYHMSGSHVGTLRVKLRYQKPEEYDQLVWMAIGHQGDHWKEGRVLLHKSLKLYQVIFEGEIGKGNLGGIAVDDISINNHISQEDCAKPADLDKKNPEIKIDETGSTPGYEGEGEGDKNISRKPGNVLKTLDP

For experiment [2], the target named is T2, Cyno NRP-1 His (cynomolgus monkey, UniProt O14786 22-856 (human entry), limits assumed).
T2 construct: Recombinant monomeric protein; also called cynomolgus monkey NRP-1-His; cNRP-1; not shown: His tag
T2 chain: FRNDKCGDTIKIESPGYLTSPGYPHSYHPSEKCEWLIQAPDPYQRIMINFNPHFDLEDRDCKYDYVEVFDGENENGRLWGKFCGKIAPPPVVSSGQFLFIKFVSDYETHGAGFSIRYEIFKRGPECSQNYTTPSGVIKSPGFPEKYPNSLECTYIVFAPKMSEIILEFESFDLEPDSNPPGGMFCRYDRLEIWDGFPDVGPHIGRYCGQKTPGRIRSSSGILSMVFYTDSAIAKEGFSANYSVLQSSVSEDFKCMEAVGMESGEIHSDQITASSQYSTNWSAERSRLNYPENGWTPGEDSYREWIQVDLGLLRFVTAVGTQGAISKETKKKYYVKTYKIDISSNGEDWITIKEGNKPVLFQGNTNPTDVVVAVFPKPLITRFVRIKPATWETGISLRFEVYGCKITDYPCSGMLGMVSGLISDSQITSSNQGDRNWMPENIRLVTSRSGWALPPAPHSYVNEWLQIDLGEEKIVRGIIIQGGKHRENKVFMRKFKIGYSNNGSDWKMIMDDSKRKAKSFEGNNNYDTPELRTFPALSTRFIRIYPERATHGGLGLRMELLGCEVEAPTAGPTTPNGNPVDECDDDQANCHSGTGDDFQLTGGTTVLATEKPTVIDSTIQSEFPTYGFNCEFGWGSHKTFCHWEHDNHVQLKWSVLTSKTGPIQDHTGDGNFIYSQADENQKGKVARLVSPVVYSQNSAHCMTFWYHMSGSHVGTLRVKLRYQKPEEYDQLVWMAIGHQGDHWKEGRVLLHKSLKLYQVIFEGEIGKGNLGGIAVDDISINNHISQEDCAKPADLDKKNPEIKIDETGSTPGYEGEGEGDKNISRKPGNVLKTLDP
Described as above.

In experiment [3] the target is T3, Mouse NRP-1 His (mouse, UniProt P97333 22-856).
T3 construct: Recombinant monomeric protein; also called mNRP-1; not shown: His tag
Described as above.

The target of experiment [4] is T4, recombinant human NRP-1 (human, UniProt O14786 22-856, limits assumed).
T4 construct: also called biotinylated human NRP-1
In words: blocking ELISA: human NRP-1 coated, VEGFA added with IgG1 antibody; competitor VEGFA. (In general: In an ELISA, binding on a coated surface is turned into a signal by an enzyme label.)
Target sequence in this assay (O14786 22-856 V179A limits assumed): as the sequence (O14786 22-856 V179A limits assumed) above

Experiment [5] has as its target T4, recombinant human NRP-1. In words: blocking ELISA: SEMA3A coated, biotinylated human NRP-1 preincubated with IgG1 antibody; competitor SEMA3A.
Target sequence in this assay (O14786 22-856 V179A limits assumed): as the sequence (O14786 22-856 V179A limits assumed) above
Experiment [6] deals with T1, Human NRP-1 His. Put plainly: MSD-SET solution equilibrium titration, Fab.
For experiment [7], the target named is T1, Human NRP-1 His. Put plainly: BLI Octet QKe, IgG4 S228P on AHC sensor, multi-concentration monomeric antigen, global 1:1 fit.
Target sequence in this assay (O14786 22-856 V179A limits assumed): as the sequence (O14786 22-856 V179A limits assumed) above
Experiment [8] concerns the target T2, Cyno NRP-1 His. Described as above.
Experiment [9] addresses T3, Mouse NRP-1 His. The experiment is described as above.
The target in experiment [10] is T4, recombinant human NRP-1. In words: blocking ELISA, average of n=2: SEMA3A coated, biotinylated human NRP-1 preincubated with IgG4 antibody; competitor SEMA3A.
Target sequence in this assay (O14786 22-856 V179A limits assumed): as the sequence (O14786 22-856 V179A limits assumed) above
Experiment [11] addresses T4, recombinant human NRP-1. Put plainly: blocking ELISA, average of n=2: human NRP-1 coated, VEGFA added with IgG4 antibody; competitor VEGFA.

T3 sequence (P97333 22-856 limits assumed): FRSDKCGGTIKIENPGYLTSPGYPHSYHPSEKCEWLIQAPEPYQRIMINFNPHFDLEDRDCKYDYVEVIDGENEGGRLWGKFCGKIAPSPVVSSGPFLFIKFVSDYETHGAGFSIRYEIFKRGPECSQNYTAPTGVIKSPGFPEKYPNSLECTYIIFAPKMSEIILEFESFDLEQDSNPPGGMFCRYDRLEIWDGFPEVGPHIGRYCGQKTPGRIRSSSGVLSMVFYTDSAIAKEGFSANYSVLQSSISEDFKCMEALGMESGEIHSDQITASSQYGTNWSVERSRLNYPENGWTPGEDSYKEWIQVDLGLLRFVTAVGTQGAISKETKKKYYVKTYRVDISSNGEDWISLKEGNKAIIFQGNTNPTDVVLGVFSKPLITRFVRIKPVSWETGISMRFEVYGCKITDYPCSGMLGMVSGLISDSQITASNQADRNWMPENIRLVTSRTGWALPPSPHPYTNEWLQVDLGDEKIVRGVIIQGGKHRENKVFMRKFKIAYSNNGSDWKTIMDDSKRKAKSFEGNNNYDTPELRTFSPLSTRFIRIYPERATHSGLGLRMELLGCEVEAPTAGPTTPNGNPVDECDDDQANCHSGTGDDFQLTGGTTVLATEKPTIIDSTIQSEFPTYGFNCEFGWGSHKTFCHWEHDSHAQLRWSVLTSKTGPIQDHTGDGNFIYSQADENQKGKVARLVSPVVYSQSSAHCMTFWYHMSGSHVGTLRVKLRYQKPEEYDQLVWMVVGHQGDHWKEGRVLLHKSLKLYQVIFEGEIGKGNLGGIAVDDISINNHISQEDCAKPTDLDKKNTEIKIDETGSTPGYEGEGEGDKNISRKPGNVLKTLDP

B1: MAB7 (antibody, V domains shown)
VH: EVQLVESGGGLVQPGGSLRLSCAASGFTFSSYWMEWVRQAPGKGLEWVARIKRDGSEKYYVDSVKGRFTISRDNAKNSLYLQMNSLRAEDTAVYYCARDQGYKTPTDFDLWGRGTLVTVSS
VL: DIQMTQSPSSLSASVGDRVTITCQASQDITNYLNWYQQKPGKAPKLLIYDASNLETGVPSRFSGSGSGTDFTFTISSLQPEDIATYYCQQSDVLPITFGGGTKVEIK
In the case of B1, the Kd in experiment [1] is 11.2 nM; in experiment [2], 10.9 nM; in experiment [3], 14.7 nM. Moreover, the IC50 in experiment [4] worked out at 6.9 nM; in experiment [5], 1.7 nM.

B2: MAB13 Fab (Fab, V domains shown)
VH: QVQLQQWGAGLLKPSETLSLTCAVYGGSFRGYYWEWIRQPPGKGLEWIGEISHSGSTNYNPSLKSRVTISVDTSKNQFSLKLSSVTAADTAVYYCARARPYREPYGMDVWGQGTTVTVSS
VL: DIQLTQSPSSVSASVGDRVTITCRASQDISSWLAWYQQKPGKAPKLLIYAASSLQSGVPSRFSGSGSGTDFTLTISSLQPEDFATYYCQQELAFPRTFGGGTKVEIK
In experiment [6], B2 showed a Kd of 0.54 nM.

B3: MAB5 IgG4 S228P (antibody, V domains shown)
VH: QVQLVQSGAEVKKPGASVKVSCKASGYTFTSYYMHWVRQAPGQGLEWMGIINPQGGDTSYAQKFQGRVTMTRDTSTSTVYMELSSLRSEDTAVYYCARDRGMYYASGFGPWGQGTLVTVSS
VL: EIVMTQSPGTLSLSPGERATLSCRASQSVSSSYLAWYQQKPGQAPRLLIYGASNRATGIPDRFSGSGSGTDFTLTISRLEPEDFAVYYCQQLSSFPITFGGGTKVEIKR
B3: the Kd was determined as 8.4 nM in experiment [7], 12 nM in [8] and 6.6 nM in [9]. The IC50 in experiment [10] amounted to 2.9 nM.

B4: MAB6 (antibody, V domains shown)
VH: B3 VH with E10K, A40V, G109N
VL: EIVMTQSPGTLSLSPGERATLSCRASQSVSSSYLAWYQQKPGQAPRLLIYGASNRATGIPDRFSGSGSGTDFTLTISRLEPEDFAVYYCQQLSSFPITFGGGTKVEIK
Regarding B4, the Kd in [1] amounted to 4.72 nM; in experiment [2] it was 5.54 nM; in experiment [3], 6.98 nM. Moreover, the IC50 in experiment [4] was found to be 7.4 nM; in experiment [5], 1.8 nM.

B5: MAB2 IgG4 S228P (antibody, V domains shown)
VH: QVQLVQSGAEVKKPGASVKVSCKASGYTFRSYYMLWVRQAPGQGLEWMGIIDPSDGSTSYAQKFQGRVTMTRDASTSTVYMELSSLRSEDTAVYYCARGARRITGYGMDVWGQGTTVIVSS
VL: DIQMTQSPSSVSASVGDRVTITCRASQGISSWLAWYQQKPGKAPKLLIYAASNLQSGVPSRFSGSGSGTDFTLTISSLQPEDFATYYCQQASVFPFTFGGGTKVEIKR
Consider B5, for which the dissociation constant Kd worked out at 2.4 nM in experiment [7], 4.5 nM in experiment [8] and 5.1 nM in experiment [9]. Besides, the IC50 in [10] came to 2.6 nM.

B6: MAB3 IgG4 S228P (antibody, V domains shown)
VH: QAQLVQSGAEVKKPGASVKVSCKASGYTFSRYYMHWVRQAPGQGLEWMGIINPLGGSTLYAQKFQGRVTMTRDTSTSTVYMELSSLRSEDTAVYYCARDLGYYGSGMHAWGQGTLVTVSS
VL: B5 VL with S31R, N53S, S92N, V93L, F94L
On to B6, for which the Kd in experiment [7] was 3.7 nM; in [8] it was 7.3 nM; in [9] it was 4.4 nM. The IC50 in [10] came to 2 nM.

B7: MAB1 Fab (Fab, V domains shown)
VH: B5 VH with E10G, A74T, S75P, I118T
VL: B2 VL with L4M, D28G, S53N, E91A, L92S, A93V, R96F
Turning to B7, in experiment [6], the Kd amounted to 0.32 nM.

B8: MAB4 IgG4 S228P (antibody, V domains shown)
VH: B6 VH with A2V, A109V
VL: B5 VL with S31R, N53S, S92N, V93L, F94L
With B8, the Kd is 3.1 nM in [7], 4.5 nM in experiment [8] and 2.3 nM in [9]. Moreover, in [10], the IC50 is 2.3 nM.

B9: MAB15 Fab (Fab, V domains shown)
VH: QVQLQQWGAGLLKPSETLSLTCAVYGGSFVKYYWSWIRQPPGKGLEWIGDIWHSGMTNYNPSLKSRVTISVDTSKNQFSLKLSSVTAADTAVYYCARGPGYDSSGYSRRFDPWGQGTLVTVSS
VL: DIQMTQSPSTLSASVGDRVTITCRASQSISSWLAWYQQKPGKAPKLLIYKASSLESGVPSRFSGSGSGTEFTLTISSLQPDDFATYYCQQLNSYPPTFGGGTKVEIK
Turning to B9, the Kd in experiment [6] worked out at 0.18 nM.

B10: MAB10 (antibody, V domains shown)
VH: EVQLLESGGGLVQPGGSLRLSCAASGFTFSSVAMVWVRQAPGKGLEWVSAISGSGGATYYADSVKGRFTISRDNSKNTLYLQMNSLRAEDTAVYYCAKDPGYDSSRYYYSNYGMDVWGQGTTVTVSS
VL: DIQMTQSPSSLSASVGDRVTITCRASQSISSYLNWYQQKPGKAPKLLIYGASSLQSGVPSRFSGSGSGTDFTLTISSLQPEDFATYYCQQTYSLYTFGGGTKVEIK
B10: the values for the Kd in experiment [1], in experiment [2] and in experiment [3] were 0.868 nM, 0.866 nM and 0.746 nM, respectively. The values for the IC50 in [4] and in [5] were 6.7 nM and 1.5 nM, respectively.

B11: MAB12 IgG4 S228P (antibody, V domains shown)
VH: B10 VH with K65E
VL: DIQMTQSPSSLSASVGDRVTITCRASQSISSYLNWYQQKPGKAPKLLIYGASSLQSGVPSRFSGSGSGTDFTLTISSLQPEDFATYYCQQTYSLYTFGGGTKVEIKR
B11: the Kd in experiment [7] came to 0.12 nM; in [8], 0.19 nM; in experiment [9], 0.16 nM. Besides, the IC50 in experiment [11] came out at 3.2 nM; in experiment [10], 1.2 nM.

B12: MAB11 (antibody, V domains shown)
VH: B10 VH with K65E, N84S
VL: B10 VL
With B12, the Kd in experiment [1] worked out at 0.485 nM; in experiment [2], 0.48 nM; in [3], 0.446 nM. Moreover, the IC50 was found to be 5.9 nM in experiment [4] and 0.8 nM in experiment [5].

B13: MAB9 (antibody, V domains shown)
VH: B10 VH with S30K, V32Y, A50I
VL: B10 VL
B13: the Kd in experiment [1] is 0.645 nM; in experiment [2] it was 0.643 nM; in experiment [3], 0.566 nM. Besides, the IC50 worked out at 6.5 nM in experiment [4] and 1.8 nM in experiment [5].

B14: MAB8 (antibody, V domains shown)
VH: B10 VH with S30A, V32Y, A50I, A57S
VL: B10 VL
As for B14, the Kd was 0.613 nM in [1], 0.642 nM in experiment [2] and 0.552 nM in [3]. The results for the IC50 in [4] and in experiment [5] were 7.3 nM and 2 nM, respectively.
